System: MS2 coat protein
Test: apparent KD of MS2 coat protein; designed switch direction (-1 OFF switch, 1 ON switch): -1; higher = weaker reporter binding
Outline: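 Apparent KD, taken as the median over clusters for each design, was obtained by curve-fitting normalised cluster fluorescence. Designed RNA switches had been transcribed on Illumina chips by stalled E. coli RNA polymerase and titrated with SNAP-549-labelled MS2 coat protein, doubling from 0.7 or 1.5 nM to 3 µM.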

[1] = Eterna round: R95, input ligand: FMN 200 uM
[2] = Eterna round: R95, input ligand: microRNA oligo, concentration not stated
[3] = Eterna round: R95, input ligand: none
[4] = input ligand: microRNA oligo, concentration not stated

Sequence	apparent KD of MS2 coat protein (input ligand: FMN 200 uM)	apparent KD of MS2 coat protein (input ligand: none)	apparent KD of MS2 coat protein [1]	apparent KD of MS2 coat protein [2]	apparent KD of MS2 coat protein [3]	apparent KD of MS2 coat protein [4]
AGAUCACAUGAGGAUCACCCAUGUCAGGAUAUCAUCAUUGAAGCCUCGGCUUCAAUGAUGAGAAGGGACAUAAU [E1/2-B2] (Eterna round: R97, puzzle: Exclusion 1)	546 nM	465 nM				
AAAUACAAGCAAAGAUCCUACAUGAGGAUCACCCAUGUGCUCGUCUUAUAAAGUACUAUCACGAAAGUGAUAGUACA [Sensor 3, v1 - 15] (puzzle: Sensor v3, turn-off variant 1)			286 nM	48.2 nM	1110 nM	
ACAUGUUGCGCAGGAUAUGGGACACAUGAGGAUCACCCAUGUGGUUACAUGUCUUACCAAGCGUCCCAGAAGGGCGUGAACAUG [Ex NG2 #31] (Eterna round: R96, puzzle: Exclusion NG 2)	28.6 nM	22.1 nM				18.4 nM
GGUCGACAUGAGGAUCACCCAUGUCAGGAUAUCUACAUUGAAGCUUCGGCUUCAAUGUAGAGAAGGGACAUAAU [E1/14-B1] (Eterna round: R97, puzzle: Exclusion 1)	35.3 nM	30.1 nM				
AUGCGUGGCUAGGAUAUCGAGGAAUUUAGCCAGCGAGAAGGAGCCACAUGAGGAUCACCCAUGUGGUGAACCUU [jl-ex6-4.64 ViennaUCT mod] (Eterna round: R97, puzzle: Exclusion 6)	14.5 nM	15.8 nM				
GAAAAGGUAGGAUAUACGAAAAAAAAAGGUAGAAAAAAAACACAUGAGGAUCACCCAUGUAGAAGGACCAAAAG [salish99_ex2_r3_070] (puzzle: Exclusion 2)			37.4 nM	51.5 nM	30.6 nM	
AAGAAACAUGAGGAUCACCCAUGUCAGGAUAUCUCGAAAAGCAUAGAAAUAUGCGAAGAGAGAAGGGACUGCCC [ChP Ext 10-04-2015 #2] (puzzle: Exclusion 1)			20.8 nM	19.3 nM	19.2 nM	
UAAUACUCAGGAUAUAUGAUGUGAAACAUGAGGAUCACCCAUGUAAUAUUAUGGAUGUAAAUAGAAGGGAGAUUAU [Mat - Exclusion 5 - JL mod - D20] (puzzle: Exclusion 5)			53.3 nM	55.4 nM	63 nM	
CCAUCGUGUGUGAGGAUAUGCUGGUCCUUGGAUCAGCAGAAGGCACAUGAGGAUCACCCAUGUGAAGACGGUGG [JL bmx4 3.22] (puzzle: Brourd's mod of Exclusion 4)			48.7 nM	17.4 nM	24.2 nM	
AAUUCACAUGAGGAUCACCCAUGUCAGGAUAUGGUUUCACGGGUUUCGGUGCGUGAGGCCAGAAGGGACAGCUA (puzzle: Exclusion 1)				51.5 nM		
GAUAGACAUGAGGAUCACCCAUGUGAGGAUAUGCGUACGUUGUCAGUAGGCGACGUGCGCAGAAGGCGCAAGUU [Mat - Mod of JL D91] (puzzle: Exclusion 1)				61.8 nM		
GAAAAGGUAGGAUAUACGAUAAAAAAGGGUAGAAAAAAAACACAUGAGGAUCACCCAUGUAGAAGGACCAAAAG [salish99_ex2_r3_086] (puzzle: Exclusion 2)			95.2 nM	20.7 nM	30 nM	
AAAACUCGAGUUAGGAUAUUGAGUGCUAAAAUCACCAAGAAGGAACAUGAGGAUCACCCAUGUAACGAAGGUGA [BmEX4 A.10] (Eterna round: R97, puzzle: Brourd's mod of Exclusion 4)	19.8 nM	16 nM				
AGUACUAACACGAAAGUGUUAGUACAAUAAGCUUGUGAAACAUGAGGAUCACCCAUGUCCUCAUAAGCUCGUCUUAU [Mat - Sensor v2 -ver2- JL mod - D68] (Eterna round: R96, puzzle: Sensor v2, turn-off variant 2)	15.4 nM	17.6 nM				468 nM
UCAUGUAUGUAGGAUAUCGAUGUCUUCGGACAUCGAGAAGGACGUACAUGAGGAUCACCCAUGUAACUUGCAUG [Exclusion 6 - B - 11:b] (puzzle: Exclusion 6)				14.8 nM		
CCUCAACAUGAGGAUCACCCAUGUAAGGAUAUGUUGCAGAGCCUCGAGGUACCCGUCAACAGAAGGUAUAUAGA [Eternabot (L1) Solution 16] (Eterna round: R97, puzzle: Exclusion 1)	45.1 nM	30.7 nM				

Reference: the supplement of paper PMC9170038
